Data published in article PMC2791401.

Biological target: p190RhoGAP-A (endogenous) (human (endogenous in HeLa)) (UniProt Q9NRY4)
Assay: co-IP

UniProt Q9NRY4, sequence (Q9NRY4 whole entry): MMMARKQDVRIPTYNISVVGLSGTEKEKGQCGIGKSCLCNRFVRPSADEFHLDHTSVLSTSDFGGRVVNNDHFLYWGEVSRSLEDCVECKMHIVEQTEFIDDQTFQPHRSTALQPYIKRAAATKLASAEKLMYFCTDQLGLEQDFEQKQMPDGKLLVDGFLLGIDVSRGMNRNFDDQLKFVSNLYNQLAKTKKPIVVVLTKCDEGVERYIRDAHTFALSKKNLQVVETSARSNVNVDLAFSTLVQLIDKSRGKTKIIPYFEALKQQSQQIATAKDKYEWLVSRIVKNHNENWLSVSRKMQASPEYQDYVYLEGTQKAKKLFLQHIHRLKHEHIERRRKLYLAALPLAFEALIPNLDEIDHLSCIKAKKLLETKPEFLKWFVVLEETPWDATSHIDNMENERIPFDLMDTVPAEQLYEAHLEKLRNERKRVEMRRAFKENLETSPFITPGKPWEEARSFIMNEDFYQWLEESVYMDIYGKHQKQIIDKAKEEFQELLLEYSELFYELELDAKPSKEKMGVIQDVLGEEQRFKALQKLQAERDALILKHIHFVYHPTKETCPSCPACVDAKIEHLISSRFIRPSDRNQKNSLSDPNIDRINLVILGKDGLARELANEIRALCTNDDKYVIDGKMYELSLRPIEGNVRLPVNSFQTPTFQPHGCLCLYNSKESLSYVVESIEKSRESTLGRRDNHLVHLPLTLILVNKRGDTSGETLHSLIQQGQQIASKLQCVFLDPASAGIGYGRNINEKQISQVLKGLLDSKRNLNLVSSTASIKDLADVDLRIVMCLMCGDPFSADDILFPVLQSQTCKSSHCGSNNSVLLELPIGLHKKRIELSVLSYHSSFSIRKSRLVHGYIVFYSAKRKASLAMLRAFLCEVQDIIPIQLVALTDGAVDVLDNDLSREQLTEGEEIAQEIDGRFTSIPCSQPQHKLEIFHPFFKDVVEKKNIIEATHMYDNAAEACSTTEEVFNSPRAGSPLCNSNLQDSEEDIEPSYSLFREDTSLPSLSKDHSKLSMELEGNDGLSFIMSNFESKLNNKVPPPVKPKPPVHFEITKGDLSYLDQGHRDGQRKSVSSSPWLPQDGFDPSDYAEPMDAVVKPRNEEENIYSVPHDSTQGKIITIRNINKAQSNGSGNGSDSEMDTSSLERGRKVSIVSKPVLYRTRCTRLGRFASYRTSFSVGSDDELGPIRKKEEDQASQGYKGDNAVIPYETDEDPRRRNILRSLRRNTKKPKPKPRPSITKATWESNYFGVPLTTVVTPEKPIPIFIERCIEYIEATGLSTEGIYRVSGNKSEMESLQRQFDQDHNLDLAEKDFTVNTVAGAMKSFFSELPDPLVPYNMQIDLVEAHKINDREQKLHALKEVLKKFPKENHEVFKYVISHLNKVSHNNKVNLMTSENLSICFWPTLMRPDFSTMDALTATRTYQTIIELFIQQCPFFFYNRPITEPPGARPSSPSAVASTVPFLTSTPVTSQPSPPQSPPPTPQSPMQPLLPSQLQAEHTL

Substance: FLAG-tagged ECT2C (amino acids 414-883) (domain or fragment)
- IP/Total (amount co-immunoprecipitated by anti-p190 vs. total protein expressed): 1.5

Substance: FLAG-tagged ECT2N (amino acids 1-334) (domain or fragment)
- IP/WL (amount co-immunoprecipitated by anti-p190 vs. total protein expressed): 0.2

Substance: FLAG-tagged wild type ECT2 (pCEV29F3-ECT2) (natural protein)
- abundance of the complex, percent of total p190 or ECT2: 2 to 4%
